{"source": "the DeepSol protein solubility set"}
{"assay": "soluble on expression in E. coli; label from the status in PepcDB or PDB records"}
{"sequence": "MEYKLHNGSGGLCCKGCSRQDKKLNTYDWLADIPGNAEECDMVEVQFKNTRKGYYRNSNKIKLEKGDIVAVEAAPGHDIGVVTLTGRLVPLQMKKANFKTDVEIKRIYRKAKPVDMEKFNEAKAKEHATMIRARQIALNLNLDMKIGDVEYQGDGNKAIFYYIADERVDFRQLIKVLAEAFRVRIEMKQIGARQEAGRIGGIGPCGRELCCATWMTSFVSVSTSAARFQDISLNPQKLAGQCAKLKCCLNYEVDCYVEAQKRLPSKEIELETKDGTFYFFKADILSNHVSYSTDKNFPANLVTISGKRAFEVIAMNKKGMKPDSLLEAEVKQESKKPIDLLEQESLTRFDRNRNNKDGNNGNRNKKKRKGNNDNRPQAQAESGNRPQQPQRGENENRPQPSENGNRGERGDRENRPRNNNNNNRNRGQNQGRNNENRRPERGQNQERPQNPNRPQNQERSQNQERPVNQERNQERNQERPQNRERQPKQERPQNQERPQEQGRQPNQERIPRPERNSNQEKPQNNEKPAQELEHHHHHH", "soluble on expression in E. coli": "soluble"}
{"sequence": "MEYKPMPYPIIDSHCHLDFPKFNPDREEAIQRARKAGVVGMVNSGISLKGNRISLELAEKNEDIHAALGLSPDIGREGSDKDINAILAQIEANAGKAVAIGEAGLDFQDCKTDEERRRQTASFKKVIELAKNLEKPLVVHARMAEAEVLELARDVDTVIYHCYSGSVETMKEIVDAGYYISLATLVCFSEHHQTLAAEVPPENLLLETDSPFLSPRRGRNEPAFIVDSIPVVAEYKEMEPAEIAKFATENARRVFKILEHHHHHH", "soluble on expression in E. coli": "not soluble"}
{"sequence": "MEYNPFHNGHLYHLTSARELVKPDYTIAVMSGNFCQRGEPAVIDKFARAEIALRMGVDVVLELPVVFATQDAGGFAFGAVCVLDATGVVTDVVFGSESNDIEFLQRVARILYEQPDEYQKFLHEELKKGYSFPNARKYALMRYFSMKGWNEEEVLKLEKSNDILGVEYIHSALKIGSNIRFHTIKRVGAEEKDTSFRGRFSSATAIRNLMREKRWEEVRDSLPEDSFEILMREINEGRGPVFLENMGDFLLSFFRLKNMDFFEKIHGFSEGLEKRFHVCARQTGSYRDFLECVKAKRFTFSRIRRLALFSVFEVNKEFVEKSNTKGPQYIRILGFTEKGREILSLMRKKAKLPIVTNMSLYRKVLEKTDLPVDKQLFLEQIDLDVKATNFYSMFFPSVEQRCGERDFSIHPIFLRTEM", "soluble on expression in E. coli": "not soluble"}
{"sequence": "MEYSNFFDDLKSNIIGQYEECKAYRILCESQGYNPSEHLRSEKDITNIPFLATTLFKKSANLFLSLLRVEPDKLDKWTLSSSTSGDPSMVGRRNSDLMQIRKFVLMDDKFYDSASEYNCVFYPEPKVMREYKSVRIMDKPTESYIGNLLGIFDFSENTTFLLKSCGEGFSVDMNSFEEFLKFNNERNNHLSLRGSTLLLYNAVLELKKQGKGPYNLGSRAIVHTGGGGWDGKKGNISIGTKIERYQFVEEISEFLGIPQKNFRDTYSFTENTFPMDGHYSEKLRSYLFHVPTWGRVIIRDVKTLEPLNKPGDRGLVQVLNAYGTSSFAGASILVDDIAEIVANDSCPECKHEGMTFKIVGRVKGSEAKGCGATLDVRGKQKLEHHHHHH", "soluble on expression in E. coli": "soluble"}
{"sequence": "MFAHQNASFPPRPEGRGGKEAVFRLTVFCIITFSSLICEAMKRAYKYRFYPTTEQAELLAQTFGCVRFVYNSILRWRTDAYYERKEKIGYLQANARLTALKKEPEFAWLNDVSCVPLQQSLRHQQTAFANFFAGRAAYPAFKSKRHKQAAEFTASAFKYRDGKLYMAKNKIPLDVRWSRPLPSVPSTVTISKDAAGRYFVSCLCEFEPASLPITSSMVGIDVGLKDLFVTDTGFRSGNPRHTAKYAARLALLQRRLSKKAKGSKNRAKAHLKVARLHAKIADCRLDALHKATRKLINDNQVVCVESLKVRNMIRNPSLSKAIADASWGELVRQLRYKGEWAGRSVVAIDQFFPSSKRCSCCGFIMKKMPLDVRKWQCPECGTDHDRDVNAARNIKAAGLAVLAHGEPVNPESLKAALEHHHHHH", "soluble on expression in E. coli": "not soluble"}
{"sequence": "MFAPSTVYTYGHHGSGTDEDDGQQVMPGMDNGDGQCMVCGDRSAGKHYGVMACYGCKGFFRRTIRSQQTYTCRFTQKCAIDKDQRNACRYCRFQRCLTVGMEPEAIRPDRDVIGKQKNPRKKKMKSDTNSGSIDASLPSPNGCDSPVSNNEDVILSFLLDVEDQATCGNNHITMPIGISMMMKNDPDFDVSTLFHSQYVRNQESFPITYAVGRTASVEQLIAALRRYVLSAVHWIDALFNLAHLTEIHDKTTLLKSVIGPFTIFNIAARTAQISDGDLICLCNKSTINRQPARHLLDTNLVGNNFVGRVIDDLVFPTKKLALTNPEITILSALIILDPDARGLSQETSQALLGIRDRVQNALFNLIRDNSNNMTSVTSRFGNLLLLFPPLAKLSSLIGENVQLAKMFGIPIDSLLVELYVDADSPELISQGSHARERSDVSTQTASLEGASASMTPDVTSSEFVKMEQNESPSSSEEPMCIGAPATSSANAVATNLAADLLGLLPNFDATGLDLASAAAAAATSVNYSHFYGFGNLGGSLDDSSSSGTGSVGSFAPHSAPPISNNVNPFAVHGFFDNSAPNTGVVHNQPFRFV", "soluble on expression in E. coli": "not soluble"}
{"sequence": "MFCSSNIPIRLRDKKENNSIIVLPGGSEKSAAGQWRPHLPT", "soluble on expression in E. coli": "not soluble"}
{"sequence": "MFDPKMLSVEFRNGITDEKPIEGRKYTLTHNDDTGELFLTVALAYAYDKINSSARDEVFGVWKRGNNRFILKIYLYVDGNQGREEAIKRDRIFRKELPLALAAIAYGDRKFLDDNDDLLNSNIIVRFISAYEELNKIENYGTLKDYLEHHHHHH", "soluble on expression in E. coli": "soluble"}
{"sequence": "MFEELKTFVAVVEYKNFTKAGEYLNLSQPSVSKHIKNLENYFKVVLINRSIKQKTIFITESGQILYKRAKEILNLLNITYHDVSQVSDAITGHLKIGASLTIGEYILPNFLALFSKKYPDIDVEVFIKNTSIVSSHVKDYILDIGLIEGTCSSPSFIQEYFFEDKMVLALPYKSHLLKDFSFDKLQNQKWIVREDGSGTRDYLDMFLSVKEIIPKSMMVFGSNYAVKESVRNNLGITIVSNLVTSLPVLNNELSVIELGSSYNRHFSYIFPKDITLSKAATIFIEELKIFSNLNSI", "soluble on expression in E. coli": "not soluble"}
{"sequence": "MFEIRDVDLAGRIGRIYTQHGVVETPAFFPVIDVYRQEVSVDEVRAAGFGQVITNAYLLWKRFGWEAAEKGVHRILGFPGVVMTDSGAYQILEYGGVELSQGEVVEYQKRLGSDIAVILDIPTGDVGRREAEESVRETIRRALEARVMIEGDERIWVYPVQGGRYFDLVEESARVGGRLGFYRMYGIGSPTVFLERYMYHVVVEAVYRAKKHLPWGRPVHLFGAGHPLIFPYAVALGVDTFDSASYILYAREGRYITEYGVYRIEDLDYLPCSCPVCSRYTPQELREMDRVERTRLLALHNLYVISASMRRVKQAIREGRLWELLEETSRKHPSTARVMARMRRYIDALEKGSARGRGVVRGVRAYGLESLSNPRLSRFSSDAARLVEAMAEKWGGGKAVLKPLDPKPEPGQCESMVGGGEWILFYQPFLGVFPVEACGAYPSLQIDYPQEGLPAEVIGDLASKIASTVSILRGRGFTVRLEYCGKVEWQARAVEALKTAAAGDLPTVEACG", "soluble on expression in E. coli": "soluble"}
{"sequence": "MFFNKSLQQENQRLKQELYSLQQIQQSLDEEMLRLTLDAKGNVTSANQKFLQQLSLSDKDILAKHISDLVPSNVRNTDHFYRMKQSVQAKAFWNGAFQITKGDGEEAWLRVVIQPVRNASDQVESFFVFASELTRTITTSREYEDMLNALSRSMAVIEFTLDGTVLKANDNFLSTMGYKHEQIVGKHHRIFCLPEEANSSAYHDFWKRLASGQFVTDRFKRVDQHGSVVWLEASYNPIHNDRGELYKVVKFATNITQQVLQ", "soluble on expression in E. coli": "not soluble"}
{"sequence": "MFGKGENLAATDYQMVRHPDIHQAQCLYQTFRDKAVCLTGGDFTGRVIVCQHHGCGIVIQGAFNHFPGMDFRAVDGAGEEGFTGNQLILVIQIQHPELFTLQSRHVQNQPFPCRTGGGEGHAGFMKMAVQGFQGPQNETALAGRHFSGQKGNLLHCSCPLSVNNAHNGAAFRMLQGVIPQTVIMNRHGITLRTAGVMTVRHQTGGNAGGFRAHFSAVTVHDVKQHPCFVIIVIRFGCHKCATVVQGVQIPDTTAVVFIQTVHPAEDPGLQGHPLWNEAKMLRPEADALFIRDYGGNQLLQASLRCTGRRGGVLRQCFHV", "soluble on expression in E. coli": "not soluble"}
{"sequence": "MFGNLGQAKKYLGQAAKMLIGIPDYDNYVEHMKTNHPDKPYMSYEEFFRERQNARYGGDGKGGMRCC", "soluble on expression in E. coli": "soluble"}
{"sequence": "MFHLRTCAAKLRPLTASQTVKTFSQNRPAAARTFQQIRCYSAPVAAEPFLSGTSSNYVEEMYCAWLENPKSVHKSWDIFFRNTNAGAPPGTAYQSPLPLSRGSLAAVAHAQSLVEAQPNVDKLVEDHLAVQSLIRAYQIRGHHVAQLDPLGILDADLDSSVPADIISSTDKLGFYGLDESDLDKVFHLPTTTFIGGQESALPLREIIRRLEMAYCQHIGVEFMFINDLEQCQWIRQKFETPGIMQFTNEEKRTLLARLVRSTRFEEFLQRKWSSEKRFGLEGCEVLIPALKTIIDKSSENGVDYVIMGMPHRGRLNVLANVIRKELEQIFCQFDSKLEAADEGSGDVKYHLGMYHRRINRVTDRNITLSLVANPSHLEAADPVVMGKTKAEQFYCGDTEGKKVMSILLHGDAAFAGQGIVYETFHLSDLPSYTTHGTVHVVVNNQIGFTTDPRMARSSPYPTDVARVVNAPIFHVNSDDPEAVMYVCKVAAEWRSTFHKDVVVDLVCYRRNGHNEMDEPMFTQPLMYKQIRKQKPVLQKYAELLVSQGVVNQPEYEEEISKYDKICEEAFARSKDEKILHIKHWLDSPWPGFFTLDGQPRSMSCPSTGLTEDILTHIGNVASSVPVENFTIHGGLSRILKTRGEMVKNRTVDWALAEYMAFGSLLKEGIHIRLSGQDVERGTFSHRHHVLHDQNVDKRTCIPMNHLWPNQAPYTVCNSSLSEYGVLGFEAGLRMASPNALVLWEAQFGDFHNTAQCIIDQFICPGQAKWVRQNGIVLLLPHGMEGMGPEHSSARPERFLQMCNDDPDVLPDLKEANFDINQLYDCNWVVVNCSTPGNFFHVLRRQILLPFRKPLIIFTPKSLLRHPEARSSFDEMLPGTHFQRVIPEDGPAAQNPENVKRLLFCTGKVYYDLTRERKARDMVGQVAITRIEQLSPFPFDLLLKEVQKYPNAELAWCQEEHKNQGYYDYVKPRLRTTISRAKPVWYAGRNPAAAPATGNKKTH", "soluble on expression in E. coli": "soluble"}
{"sequence": "MFIVKAFRDIIINIKFLQEGINMSDNKTAGQKLWENLSYNCPNVWNKIGNDEIKNTFAFCEEYKSFLDKSKTEREFVRETKKLAESKGFVSIDDVIDSGKPLKPGMKVYRVFKNKIVALAVIGSQPPEKGFNLVGAHIDSPRIDLKPNPIYEANEMVFLKTHYYGGIKKYQWVTIPLSMHGVIIRKDGSSVEIVIGEDENDTVFTITDLLPHLAAEQMQKKMSEGITGENLNILFGSIPYNDEKVKEKVKLNILKLLNEKYNITEEDLLSAELELVPSFKAKDVGLDKSMVGAYGQDDRVCAYTALRAVLDLDNVDKTAVCVLTDKEEIGSMGNTGAQSSFLENFIADICALSSEKYTDIILRRCLSNSKMLSADVNAAIDPTYEGVYDKLNSSFIGKGIVLLKYTGARGKSGASDAHAEFMGEVRKLFNERKIFWQTAELGKVDQGGGGTIAQFVANMGMDVIDCGVAVLSMHSPFEVTSKVDIYMAYKAYREFLKYIK", "soluble on expression in E. coli": "soluble"}
{"sequence": "MFKILLALCIVGCSFAAPIHGDVDDELLGLAWEAAATSVNNGNRGKFWVPIEIQSSDKNGAVTNLVVVFQESWCSVEEGNDLEDVCESMCPVYYGGAKATYRVTATESNGGSDFESVRIE", "soluble on expression in E. coli": "not soluble"}
{"sequence": "MFKKALFILSLCPSFALAQSYVVYDFTHNRVLESHASDSIQPIASVTKLMTANVFLENNKNPNCRIAITKEDTDRIKGTGTKLPKNIPISCNELLKAMLVHSDNYAAHALSRAAGISRRQFIKKMNEKAHQLGMYSTRFHDSSGLSSYNISSPMDLVKLAKYSLNKSDIKRLSNLSATYIQAGKQKLYIKNTNKLVRDEIFDAAVNKTGYIQESGYNLVFINKHRCKNATIGVISLNNTSSAYRSSFTKSKLEKFGCTALNGRTIRDVAGEAQYEDGYDEVGFNTLIQKLSK", "soluble on expression in E. coli": "not soluble"}
